Data set [1] deals with DinJ;YafQ_pa4366 (Lacticaseibacillus paracasei 4366;Lacticaseibacillus paracasei 4366). As to the kind of experiment: EMSA. Conditions: EMSA: 2 nM DNA, 128 ng salmon sperm DNA in 10 uL, 50 mM Tris-HCl pH 7.5, 50 mM KCl, 5% glycerol, room temperature 10 min, 6% native PAGE in TBE; RNAP …. A general note: Mobility shift assays separate free from complexed probe on a gel.
In data set [2] the test system is DinJ R13A (Lacticaseibacillus paracasei 4366). As to the kind of experiment: EMSA. Conditions: complete loss of binding up to 1.5 uM; EMSA: 2 nM DNA, 128 ng salmon sperm DNA in 10 uL, 50 mM Tris-HCl pH 7.5, 50 mM KCl, 5% glycerol, room temperature 10 min, 6% native PAGE in TBE; RNAP ….
Data set [3] relates to DinJ;YafQ_pa2333 (Lacticaseibacillus paracasei 4366;Lacticaseibacillus paracasei 2333). As to the kind of experiment: EMSA. Conditions: EMSA: 2 nM DNA, 128 ng salmon sperm DNA in 10 uL, 50 mM Tris-HCl pH 7.5, 50 mM KCl, 5% glycerol, room temperature 10 min, 6% native PAGE in TBE; RNAP ….
Data set [4] deals with T1, DinJ;YafQ_pa4366 (Lacticaseibacillus paracasei 4366;Lacticaseibacillus paracasei 4366), ORF:82b9b73a+ORF:f6e62217.
T1 sequence 1: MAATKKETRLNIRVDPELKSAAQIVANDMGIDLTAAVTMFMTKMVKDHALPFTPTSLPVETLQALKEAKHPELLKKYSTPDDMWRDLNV
T1 sequence 2: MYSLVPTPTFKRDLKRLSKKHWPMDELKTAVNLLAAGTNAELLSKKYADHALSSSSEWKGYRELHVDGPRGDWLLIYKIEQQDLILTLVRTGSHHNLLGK
As to the kind of experiment: competition. Conditions: EMSA: 2 nM DNA, 128 ng salmon sperm DNA in 10 uL, 50 mM Tris-HCl pH 7.5, 50 mM KCl, 5% glycerol, room temperature 10 min, 6% native PAGE in TBE; RNAP ….

The text below walks through data of PMC9592637, “Functional characterization and transcriptional repression by Lacticaseibacillus paracasei DinJ-YafQ” (Applied Microbiology and Biotechnology, 2022).

By Kd is commonly meant the constant that tells how readily two partners part at equilibrium. The low end stands for tighter binding, the high end for weaker binding. Take 194-bp dinJ-yafQ promoter fragment: the Kd is 0.044 µM in data set [1], > 1.5 µM in data set [2] and 0.079 µM in data set [3].

Regarding “CGTCCTCAAGCTGCTCTTGTGTTAATGGTTTCTTTTTTGTGCTCATACGTTAAATCTATCACCGCAAGGGATAAATATCTAACACCGTGCGTGTTGACTATTTTACCTCTGGCGGTGATAATGGTTGCATGTACTAAGGAGGTTGTATGGAACAACGCATAACCCTGAAAGATTATGCAATGCGCTTTGGGCAAAC (double strand) [196-bp lambda PR promoter fragment]”, the binding entry in data set [4] is “no binding”.
